In a protein production outcome set (Wang et al. 2014):

assay: label from the status in PepcDB records

Row | Sequence | protein production
1 | MVESKRTWKEKVHVESQVEERLRKNLTLKSREATKLQKKALKTTKKEFKLSKKNYKQSLKKHKLTLKTGKEPLSINHLLDKKKFVEQKKRKKAQKIAYKRTKKVDETRVVNQVKRETKEGLKREATQKVRTTLTQEDTLNEAMTLYEKTQQAKFNMRTALKTGKTVKNLSVKTAKDTYGLGNRLFNFSRGRGFQRTPKDFTLKKQLMKQLRNRAMRFKAAKEAKKAEQGIGLIRSFFNGQKTLGKVAALILKNPISWVVLLVLFLVFLLSGVASSTQKPAIVQEEEDLTASWTYFTKLDAQHTDDNNLFYSNIDDVLFYMNYRYDDFKLLDMDSTGTKNFETILSELWTALNGKKPDYQLKTMQSLETDKKSSYFIEEEQAKHYQEIKKELGYQTLDDLLSFPVKTDALIVNKRYGYDKSKEKLTLYKGIDVLIEDNQPFHSPMNGQIVSVPDTETLVIEKEKVARLTIRGVNTLRLTKGMDVEEGTFLGNTKNSTVTFQYEKYKKETKDWFFVNPAFYFPRVTYTQTTLLGSAEFSPGASVEKRAQAVYDYLSKKGYTKEGISAILGNFSVESGINPKRAEGDYLNPPVGAHGNSWDEPSWLAMGGPQIYGGRFPNILHRGLGLGQWTDTADGGRRHTLLLDYAKGKNKKWYDLQLQLDFIFDGDAPGSRTAADNVARSKVAATIPELTTYYLTVWEGNPGDKLGERIQAAQNWFTFFSRSGTPIGGSGSEVFAQYKEKMQPLPTDRETKAGQGWPGNAYAPGNCTWYVFNRFAQLGKSIYPTMGNANQWVHNYSQTPGATLESAPKKGDAVIFTNGVAGSSTQYGHVAYVEHVNSDGSFVISEMNVSGEYSMNWRVLKKEAGEYFMRLN | failed
2 | MVFFHKKIILNFIYSLMVAFLSHGVLLKADGMAKKQTLLVGERLVWDKLTLLGFLEKNHIPQKLYYNLSSQDKELSAEIQSNVTYYTLRDANNTLIQALIPISQDLQIHIYKKGEDYFLDFIPIIFTRKEKTLLLSLQTSPYQDIIKATNDPLLANQLMNAYKKSVPFKRLVKNDKIAIVYTRDYRVGQAFGQPTIKMAMVSSRSNQYYLFSHSNGHYYDSKAQEVAGFLLETPVKYTRISSPFSYGRFHPVLKVRRPHYGVDYAAKHGSLIHSASDGRVGFMGVKAGYGKVVEIHLNELRLVYAHMSAFANGLKKGSFVKKGQIIGRVGSTGLSTGPHLHFGVYKNSRPINPLGYIRTAKSKLHGKQREVFLEKAQRSKQKLEELLKTHSFEKNSFYLLEGF | failed
3 | MVFIDNLGLMLFILPLVSVLIAYTTVQAFIGFRKTGYEAIKRSLDDSILPAAILGTIIIILSLWGEFSWTLPGSYNILFYDVYLLLGITILSYSVTVYMGKRLQSTGIFALFVGLITIYYGASGYNLGLTKEPLALLALYTTYGIAGILGYPVTLALDRLRDQQGVKDPKLEGWMYAFFILFWIFVIIAGIIGAFIAVETIPAHLAHPP | failed
4 | MVFIWSLIFIVILSVVFTTNIKKNYKGWYALASFISILVSIYEVMRIVSHPKLNGVILSIEQAFMKGNVAIAFFILVMFAGALSTKQVIGKKLMSIRAELAILGSILILPHGIIYFVRFLIIKLPKILNGKANATLYLIYISIGIIAFIIMIPLFITSFKSVRKRLGGFRWKKLHRWSYVFYCLIYLHIILALLNGKINFIKIILYTFIFMVYTVMKFIKHRNIKLRRKS | failed
5 | MVFNLVVNIIGIVVFIAIAYLFSKQKHAINWRSVGVMLVLEVLLAWFLTGSQVGVDAVKAAADGFTWLVNVSYDGIAFALASWVNVKSMDFVTSSLLPILLIVPLFDILTYIGVLPWIIKWVGRGLAYITGQPKFESFFVVEMMFLGNTEALAVSQLQLKQMKAQRNLTIAMMSMSCVTASILGAYIKMMPGQFILTAVPMNVLNAAIIAAILNPVEVKPEEDTIAKISGSAAVEETTATTETSGSEELANEQVKEAKPAREPFFSFLGDSILGAGRLILIIAANVIAFVALAKLIDKLLGLINSNLSLENIFGVVMFPFAWLLGFNPSDAFQMASYMGTKLVTNEFVVMGEVSSKVNDFAPHFRAVLTVFLTSFANFSTIGMIIGAFKGIVDREKNDLISRNVGYMLLSGILVSLLSAGVVGLFVW | failed
6 | MVGEVVLVNAYKKFFREYFNFKGKTSRLDFWYVILSLLILSIIPTAILSYLIFGSLMSISGGGNVQEIMEITFLNIPIFIIGIIYLFLFVPVITMTVRRWRDVGLRASGIILIFCLLVLIVILGFIIHLKQNIIIDFLIVISSSMFLITLMPSQICCTNSKNRISQFFFCSKGER | failed
7 | MVGIYIGSTAAAAGKNLACMALGLVLGRDGRSVGYMKPYGQRPRMVDDRTGDIDAMLVQEVLGQNADPEVVTPVVEPANIRAMSLRGGNALERVGAAYTALARGRDVMLVGGTGSLFHTGRARGLDGLALVRRLDLRVVLVERYHPHPEGGGIDHDAILYAADVLGDRLAGVLLNDLPESYQRDAEEVLVPYLAEHGVRVLGLVPHDPLLHAIRASDLAVRLGGRLVCGGKGSQRLVEGFLIGTMQVENFMSHFRRHANTATIVGGDRTDLQLVALEGQCPCLVLTGNMPPDELIRQRSEQHGAPVIVVREDTYTVARKMEEILNSQKLRDLVTIRRGADIVAGALDRAALLAQTGIPKGENR | failed
8 | MVGLLVEDTIDDQGWNRKAYEGLLNIHSNLDVDVVLEEGVNSEQKAHRRIKELVDGGVNLIFGHGHAFAEYFSTIHNQYPDVHFVSFNGEVKGENITSLHFEGYAMGYFGGMVAASMSETHKVGVIAAFPWQPEVEGFVDGAKYMNESEAFVRYVGEWTDADKALELFQELQKEQVDVFYPAGDGYHVPVVEAIKDQGDFAIGYVGDQADLGGSTILTSTVQHVDDLYVLVAKRFQEGKLESGNLYYDFQDGVVSLGEFSSVVPDEVREQITDAISTYIQTGQFPHEEER | not failed
9 | MVGLVACSKQSANQQISYRQTAEATLDKGMDNQPEAPYWFPKQLLKWQLSKDKAAKYNTASVPLAKRIDKWQLPTVNKTQDPKMKVVALSIMNSSTSGNAPRGINTFDANVFSNWQYIDQLVYWGGSAGEGLIVPPTADVIDSAHKNGVPVLGTVFFPQVVSGGKLKWLNDFLKQDADGHFPMADKLVAVAKAYGFDGWFINQETDPEVKSFDSASTGKTATSSTSNGLSKKHAQLMQQLIKEYKQKAGSKLDLMWYDSMTKDGKMDWQNALTKENQSYLVDANMKPVADSMFLNFWWTKKRLASQELLKKSHERAEKLGISPYNLFAGIDVQADGTATPVRWNLFANKQHVPYTSLGLYAPDWTHASSDTVDEFQAKEGALWVNDQNDPSRLEHHHHHH | not failed
10 | MVGPLGKPIKVKYYGNVVFASDAVCGQAENYATLKAMKEVGNYTISIQTFENAENVYPEEFLAKPVADEHYLTTEDGSVGIKGHYLDIVKELIEKDKVDIIFAGGKLGSLAKLAELTRPYGIPTYATVRQIMVDGLEHHHHHH | not failed
11 | MVGSVYTLFLYFSIILGVIVGVRTRSFHSSLAVLVFSSTFVAGIKYNNSYIAIISWLALSTLSSYLFHLNVIIKSRKDESVSNVLMGYLLGFFILLTLKLHGAGWILSILASYWVFYILLMFDYSKNRRAYYLLKTLWIIFSWGALIEAFGLQKELLPFLVVYTLIFILWFKRQEYSPT | failed
12 | MVGTFLGTGASSGVPMLNCSCKVCTSSYSKNKRLRSSFFLESSSGIKLLIDTGPDIRQQLLREKIDRLDLVLYTHEHYDHIMGFDDIKFYTRCAPLNIYARDTAMAHIRNAFPYNFTSKPSLSGKADIIANVIRDFEPFFFKSLKIVPIPLIHGDIISLGYRVGNLAYLTDVKFIPEASYDYLKNLDLLIIDAMRIKPHPAHLNFSEAFCVIKKINPKISYFTHIAHDIMHEEFDYLEKDNIYLAYDGLKIYILEHHHHHH | failed
13 | MVHETDKDPAPAVGPLASAMPRGNFAASLRSPGAKFLMIGFISLVLLVPLLLVWGLTEERASRAREVSARIANGWGGDQVVNGPYLAVPFDVERRREVDGRTIVDRTTEWALVMPETLQVTADLKTEEKKLSIYSLPVYNGALVLKGRFGQGVLQDLARFAGTPRLDNAILVLSIGDITGIRSSAGVRINGGAVLPFDPGMRDMSVIASRALENNSIRSDAGVHRQIDRNLIESGFDFDIAFSLNGSGSFAVAPAGQTTSFTAKADWPHPGFEGLFLPEVKTVTAADFNASWTIPYLARGIDRVVEGPRLPLSNSLMTINLVEPVKFYQVIARTLKYSIGFISLVFLAVFIVELKGGSVVHWIQYVLTGLALIVFYVLLLALAEHTGFTVAYAAASFSTAALIAFYLGSATRSRRNGLALFSVLAVAYGVMYLVLNEDEYALLAGAVISFIAIAATMFATRKVDWSGAGTAANSEFSSRT | failed
